This note sets out measurements from patent publication US20040209326A1.

For experiment [1], the target named is Bovine serum albumin (fraction V, ria grade) (bovine) (UniProt P02769). Kind of experiment: phage panning on coated protein in microtiter wells; last wash.
Experiment [2] concerns the target Collagen type I. Described as above.
For experiment [3], the target named is Elastin. Described as above.
Experiment [4] has as its target Fibronectin. Described as above.
Experiment [5] addresses Human fibrinogen (human) (UniProt P02671). The experiment is described as above.
Experiment [6] has as its target Human serum albumin (human) (UniProt P02768). The experiment is described as above.
Experiment [7] addresses IgA. The experiment is described as above.
For experiment [8], the target named is Lactoferrin. Described as above.
The target in experiment [9] is Pepsin. Described as above.
For experiment [10], the target named is Transferrin. The description is as above.
Experiment [11] concerns the target Vitronectin. The description is as above.
Experiment [12] deals with human IgG. The description is as above.
For experiment [13], the target named is α2macroglobulin. Described as above.
Experiment [14] deals with Bovine serum albumin (fraction V, ria grade) (bovine) (UniProt P02769). In words: phage panning on coated protein in microtiter wells; bound phage eluted at pH 1.8.
The target in experiment [15] is Collagen type I. The experiment is described as above.
Experiment [16] has as its target Elastin. The experiment is described as above.
Experiment [17] addresses Fibronectin. Described as above.
Experiment [18] addresses Human fibrinogen (human) (UniProt P02671). Described as above.
Experiment [19] concerns the target Human serum albumin (human) (UniProt P02768). The experiment is described as above.
The target of experiment [20] is IgA. The experiment is described as above.
In experiment [21] the target is Lactoferrin. The description is as above.
Experiment [22] addresses Pepsin. Described as above.
Experiment [23] concerns the target Transferrin. The description is as above.
The target of experiment [24] is Vitronectin. The description is as above.
Experiment [25] has as its target human IgG. Described as above.
The target of experiment [26] is α2macroglobulin. The description is as above.
In experiment [27] the target is fibrinogen binding protein encoded from pSE100 (581 aa part of protein FIG of Staphylococcus epidermidis strain HB) (Staphylococcus epidermidis strain HB) (UniProt O70022). In words: inhibition of pSE100 phage panning on fibrinogen-coated wells by the soluble ligand; phage eluted at pH 1.8.
Chain of UniProt O70022 (O70022 75-656): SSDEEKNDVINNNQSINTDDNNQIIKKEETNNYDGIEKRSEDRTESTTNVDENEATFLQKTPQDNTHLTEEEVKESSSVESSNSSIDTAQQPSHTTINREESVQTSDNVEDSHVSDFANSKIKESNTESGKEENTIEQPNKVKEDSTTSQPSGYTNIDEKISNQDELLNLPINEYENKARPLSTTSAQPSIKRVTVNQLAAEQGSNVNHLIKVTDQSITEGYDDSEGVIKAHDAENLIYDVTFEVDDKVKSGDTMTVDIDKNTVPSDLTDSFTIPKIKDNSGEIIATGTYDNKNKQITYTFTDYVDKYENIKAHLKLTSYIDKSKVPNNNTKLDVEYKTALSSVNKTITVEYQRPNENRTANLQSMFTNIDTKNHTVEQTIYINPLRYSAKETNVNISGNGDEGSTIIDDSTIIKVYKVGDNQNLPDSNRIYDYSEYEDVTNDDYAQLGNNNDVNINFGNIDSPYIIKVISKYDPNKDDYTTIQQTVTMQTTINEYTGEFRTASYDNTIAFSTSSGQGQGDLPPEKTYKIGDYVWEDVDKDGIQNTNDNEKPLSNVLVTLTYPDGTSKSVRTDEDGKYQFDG

Chain of UniProt P02769 (P02769 25-607 limits assumed): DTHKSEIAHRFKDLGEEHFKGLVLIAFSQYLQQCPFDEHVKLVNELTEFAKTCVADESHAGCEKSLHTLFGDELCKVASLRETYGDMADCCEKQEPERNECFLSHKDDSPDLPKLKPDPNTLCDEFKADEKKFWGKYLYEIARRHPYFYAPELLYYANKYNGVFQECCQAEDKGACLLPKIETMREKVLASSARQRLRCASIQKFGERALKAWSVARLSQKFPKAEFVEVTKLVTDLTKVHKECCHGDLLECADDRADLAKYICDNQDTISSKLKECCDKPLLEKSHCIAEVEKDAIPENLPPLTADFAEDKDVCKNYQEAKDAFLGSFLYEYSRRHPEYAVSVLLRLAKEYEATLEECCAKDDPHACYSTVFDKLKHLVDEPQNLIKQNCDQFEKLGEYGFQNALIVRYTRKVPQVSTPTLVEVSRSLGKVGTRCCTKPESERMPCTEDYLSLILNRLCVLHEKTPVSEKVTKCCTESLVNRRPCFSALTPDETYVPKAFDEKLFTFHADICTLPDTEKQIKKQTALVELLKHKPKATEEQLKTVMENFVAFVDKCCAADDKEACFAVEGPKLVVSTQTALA
Chain of UniProt P02671 (P02671 other isoform, or with tags, fused parts or gaps limits assumed, chain 1 of 3): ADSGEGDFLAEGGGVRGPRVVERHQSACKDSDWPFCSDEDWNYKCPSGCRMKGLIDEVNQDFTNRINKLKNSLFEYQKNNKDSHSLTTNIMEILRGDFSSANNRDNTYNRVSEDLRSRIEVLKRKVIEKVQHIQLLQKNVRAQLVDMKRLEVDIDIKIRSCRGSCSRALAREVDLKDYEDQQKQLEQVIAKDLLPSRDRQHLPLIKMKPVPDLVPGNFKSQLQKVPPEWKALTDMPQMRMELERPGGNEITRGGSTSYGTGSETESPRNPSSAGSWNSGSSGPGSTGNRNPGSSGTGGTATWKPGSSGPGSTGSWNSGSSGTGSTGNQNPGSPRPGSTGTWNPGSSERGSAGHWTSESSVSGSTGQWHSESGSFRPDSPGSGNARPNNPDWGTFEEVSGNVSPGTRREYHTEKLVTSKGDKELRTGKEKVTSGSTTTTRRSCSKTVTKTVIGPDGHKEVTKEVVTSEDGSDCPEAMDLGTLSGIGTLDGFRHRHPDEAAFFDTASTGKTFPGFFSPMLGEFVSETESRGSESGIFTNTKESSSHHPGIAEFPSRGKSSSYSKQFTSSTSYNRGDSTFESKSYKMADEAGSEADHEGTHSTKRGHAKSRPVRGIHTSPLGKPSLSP
Chain of UniProt P02671 (P02675 31-491 limits assumed, chain 2 of 3, further chain): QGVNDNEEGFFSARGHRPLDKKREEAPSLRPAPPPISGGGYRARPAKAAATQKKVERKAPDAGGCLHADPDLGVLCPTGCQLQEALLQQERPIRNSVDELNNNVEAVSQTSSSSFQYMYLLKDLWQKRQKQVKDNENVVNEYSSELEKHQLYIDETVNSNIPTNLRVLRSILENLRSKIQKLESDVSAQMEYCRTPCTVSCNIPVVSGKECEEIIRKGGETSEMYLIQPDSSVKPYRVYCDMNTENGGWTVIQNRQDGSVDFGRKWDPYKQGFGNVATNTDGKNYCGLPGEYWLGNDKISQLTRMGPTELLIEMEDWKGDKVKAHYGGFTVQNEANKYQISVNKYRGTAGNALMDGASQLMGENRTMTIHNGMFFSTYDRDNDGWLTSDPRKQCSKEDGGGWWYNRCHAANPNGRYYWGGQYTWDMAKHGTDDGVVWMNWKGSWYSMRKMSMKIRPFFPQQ
Chain of UniProt P02671 (P02679 other isoform, or with tags, fused parts or gaps limits assumed, chain 3 of 3, further chain): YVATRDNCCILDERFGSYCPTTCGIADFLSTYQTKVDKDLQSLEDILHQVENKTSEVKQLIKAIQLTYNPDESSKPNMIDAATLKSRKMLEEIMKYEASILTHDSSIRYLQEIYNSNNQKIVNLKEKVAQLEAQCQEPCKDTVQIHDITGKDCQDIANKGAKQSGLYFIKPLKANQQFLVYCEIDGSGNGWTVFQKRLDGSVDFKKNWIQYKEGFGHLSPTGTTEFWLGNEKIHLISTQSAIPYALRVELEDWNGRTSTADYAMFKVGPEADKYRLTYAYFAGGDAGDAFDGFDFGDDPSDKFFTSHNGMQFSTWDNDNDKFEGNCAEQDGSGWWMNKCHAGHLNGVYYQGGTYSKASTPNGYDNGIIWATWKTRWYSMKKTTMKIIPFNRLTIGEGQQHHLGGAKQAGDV

As to “fibrinogen binding protein encoded from pSE100 (581 aa part of protein FIG of Staphylococcus epidermidis strain HB) (from UniProt O70022 75-656)”, the phage titre in the last wash in experiment [1] was below 100 cfu/ml; in [2] it was 600 cfu/ml; in experiment [3], 800 cfu/ml; in experiment [4], 600 cfu/ml; in [5] it was 11000 cfu/ml; in experiment [6] it was 800 cfu/ml. Moreover, the phage titre in the last wash was 600 cfu/ml in [7]; 600 cfu/ml in experiment [8]; 180 cfu/ml in [9]; 200 cfu/ml in [10]; below 100 cfu/ml in experiment [11]; 400 cfu/ml in experiment [12]. Moreover, in [13], the phage titre in the last wash was 200 cfu/ml. Besides, the phage titre in Eluate pH 1.8 turned out to be 800 cfu/ml in [14]; 1200 cfu/ml in experiment [15]; 5200 cfu/ml in [16]; 24000 cfu/ml in experiment [17]; 1.4e+07 cfu/ml in [18]; 2200 cfu/ml in experiment [19]. The phage titre in Eluate pH 1.8 in [20] is 68000 cfu/ml; in experiment [21] it was 8200 cfu/ml; in [22], 37000 cfu/ml; in [23] it was 2400 cfu/ml; in experiment [24], 2200 cfu/ml; in experiment [25], 4400 cfu/ml. For the same substance, the phage titre in Eluate pH 1.8 in [26] was found to be 2000 cfu/ml.
Turning to “Human fibrinogen (from UniProt P02671 20-644; P02675 31-491; P02679 27-437)”, in experiment [27], the eluted phage titre at 0 µg/ml soluble ligand came out at 76000 cfu/ml, the eluted phage titre at 0.1 µg/ml soluble ligand was determined as 44000 cfu/ml, the eluted phage titre at 1 µg/ml soluble ligand is 36000 cfu/ml and the eluted phage titre at 10 µg/ml soluble ligand turned out to be 15000 cfu/ml. In experiment [27], the eluted phage titre at 100 µg/ml soluble ligand came out at 3800 cfu/ml and the eluted phage titre at 1000 µg/ml soluble ligand was found to be 300 cfu/ml.
With human IgG (antibody), in experiment [27], the eluted phage titre at 0 µg/ml soluble ligand stood at 76000 cfu/ml, the eluted phage titre at 0.1 µg/ml soluble ligand was 62000 cfu/ml, the eluted phage titre at 1 µg/ml soluble ligand was 90000 cfu/ml and the eluted phage titre at 10 µg/ml soluble ligand was 78000 cfu/ml. In experiment [27], this substance registered an eluted phage titre at 100 µg/ml soluble ligand of 73000 cfu/ml and an eluted phage titre at 1000 µg/ml soluble ligand of 76000 cfu/ml.
In experiment [27], “Bovine serum albumin (fraction V, ria grade) (from UniProt P02769 25-607)” yielded an eluted phage titre at 0 µg/ml soluble ligand of 76000 cfu/ml, an eluted phage titre at 0.1 µg/ml soluble ligand of 70000 cfu/ml, an eluted phage titre at 1 µg/ml soluble ligand of 93000 cfu/ml and an eluted phage titre at 10 µg/ml soluble ligand of 63000 cfu/ml. In [27], this substance gave an eluted phage titre at 100 µg/ml soluble ligand of 64000 cfu/ml and an eluted phage titre at 1000 µg/ml soluble ligand of 69000 cfu/ml.
